Tested on: MS2 coat protein
Test: apparent KD of MS2 coat protein; designed switch direction (-1 OFF switch, 1 ON switch): -1; higher = weaker reporter binding
Procedure, shortened: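 Designed RNA switches were transcribed on Illumina chips by stalled E. coli RNA polymerase and titrated with SNAP-549-labelled MS2 coat protein from 0.7 or 1.5 nM, doubling to 3 µM. Step length ran from 0.8–1.5 h at the lowest concentration to 10–20 min at the highest. The apparent KD is the median over clusters for each design, from curve-fitted normalised cluster fluorescence.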

[1] = input ligand: microRNA oligo, concentration not stated
[2] = Eterna round: R95, input ligand: FMN 200 uM
[3] = Eterna round: R95, input ligand: microRNA oligo, concentration not stated
[4] = Eterna round: R95, input ligand: none

Row | Sequence | apparent KD of MS2 coat protein (input ligand: FMN 200 uM) [nM] | apparent KD of MS2 coat protein [1] [nM] | apparent KD of MS2 coat protein (input ligand: none) [nM] | apparent KD of MS2 coat protein [2] [nM] | apparent KD of MS2 coat protein [3] [nM] | apparent KD of MS2 coat protein [4] [nM]
1 | ACAUGACUGCUAGGAUAUAGAUGACAUGAGGAUCACCCAUGUUGUCCCAUGUUUAUGGAAACGGACUAGAAGGAGCAGCAUAUG [Ex NG2 #12] (Eterna round: R96, puzzle: Exclusion NG 2) | 25.7 | 24.8 | 30.2 |  |  | 
2 | AUACCACGAGGAUAUCGUCUAUUCCACAUGAGGAUCACCCAUGUUAUCCAUGUUUCGUUUCGAGAAGGCGUGGGUU [JR_E5_Sub074] (Eterna round: R96, puzzle: Exclusion 5) | 50.8 | 38.2 | 51.6 |  |  | 
3 | CUAGCUUCGGCUAGUACAAGCUUUUUGCUCGUCUUAUUAACAUGAGGAUCACCCAUGUUAAUGAGACCUCAUGUAUU [Sensor v3 - turn-off variant 2 - 9] (Eterna round: R96, puzzle: Sensor v3, turn-off variant 2) | 11.5 | 12.2 | 13.6 |  |  | 
4 | GCGGACUAGAUCGUGAGAUCUGAGACAUGAGGAUCACCCAUGUAGGAUAUCGAUUCGAAACGAAUCGAGAAGGGCAUAGUCCGC [JL denovo 8] (Eterna round: R96, puzzle: Exclusion NG 3) | 23.1 | 16 | 22 |  |  | 
5 | GGUCCGUCAGUGAGGAUAUUGAGGAGGAGGAGGGACAAGAAGGCACAUGAGGAUCACCCAUGUAGGGACGGACG [Alacar 1st] (Eterna round: R97, puzzle: Brourd's mod of Exclusion 4) | 46.4 |  | 21.2 |  |  | 
6 | CCGGAACAUGAGGAUCACCCAUGUCAGGAUAUCCCUAAAUCGUCGAUAGACGAUAAAAGGAGAAGGGACACCGG [Mat - Exclusion 1 - Eli Mod - D26] (Eterna round: R97, puzzle: Exclusion 1) | 19.3 |  | 16.3 |  |  | 
7 | UUAUGAGAGCAGGAUAUCUUAUUUUUUUUUUGUGGAGAAGGGCUCACAUGAGGAUCACCCAUGUGGUCCUAGAU [LRO-Excl6-25-mod of 4.86 by jal] (Eterna round: R97, puzzle: Exclusion 6) | 47.4 |  | 32.9 |  |  | 
8 | AAGCACGCGUAGGAUAUAAUCCAAACCUCGAGGUUAGAAGGACGCACAUGAGGAUCACCCAUGUUCCUAGCAUC [Eternabot (Original) Solution 19] (Eterna round: R97, puzzle: Exclusion 6) | 20.7 |  | 17.1 |  |  | 
9 | CUUAGCCUAAAAUCACGCAAGCUUCUUGCUUGUCUUAAGACAUGAGGAUCACCCAUGUCCGGGCUGAACUUAUGGAA [Enonzave] (puzzle: Sensor v3, turn-off variant 2) |  |  |  | 17.8 | 21.1 | 17.4
10 | CCGGAAAUGGAGGAUAUAGGAGUCGAUAGACACCUAGAAGGUCAUACAUGAGGAUCACCCAUGUGUCCUACCGG [Fiskers Ex 6 - 79] (puzzle: Exclusion 6) |  |  |  |  | 12.9 | 
11 | CGCGUUUAUGUAGGAUAUGCCUGGCGUGCCUUAGCAGAAGGACAUGAGGAUCACCCAUGUAACAUGAGGCUCACCCAUGUCGCA (Eterna round: R96, puzzle: Exclusion NG 1) | 201 | 120 | 167 |  |  | 
12 | AGAUGCAGAGUAAGGAUAUGGUAGGCUUGCGCAAACCAGAAGGUACAUGAGGAUCACCCAUGUAAGCAUCAAGU [eternacac ex4r4 #5] (Eterna round: R97, puzzle: Brourd's mod of Exclusion 4) | 16 |  | 15.1 |  |  | 
13 | CCCUCACAUGAGGAUCACCCAUGUCAGGAUAUCUCAGUACGUCCACACGGACGCACCAAGAGAAGGGACAAAGC [Veara] (Eterna round: R97, puzzle: Exclusion 1) | 32.2 |  | 20 |  |  | 
14 | ACCUUAAAAGUGAGGAUAUCUAGGGCCAAAUGGCCGGAGAAGGCACAUGAGGAUCACCCAUGUAACGCCAUGGA [Beinat] (puzzle: Brourd's mod of Exclusion 4) |  |  |  |  | 13.9 | 
15 | CCGGCUUAGGAGGAUAUAGGAGUCGAUAGACACCUAGAAGGCCUAACAUGAGGAUCACCCAUGUGUCCUACCGG [Fiskers Ex 6 - 99] (puzzle: Exclusion 6) |  |  |  |  | 16.3 | 
16 | GUUUGCGCAGGAUAUACAUGAGGAUCACCCAUGUGAGAGAAAGAAGUGAGGAAGAAAAGUAGAAGGGCGUGACG [Mat - Exclusion 3 - Mod of Salish D72] (puzzle: Exclusion 3) |  |  |  | 301 | 58.4 | 39
17 | GGUGGACAUGAGGAUCACCCAUGUGAGGAUAUCGGCUGGCUAGCGGCGGAUGGCUUCUCGAGAAGGCGCAUAGU [Exclusion 1 V81] (puzzle: Exclusion 1) |  |  |  |  | 62.7 | 

Row | Sequence | apparent KD of MS2 coat protein (input ligand: FMN 200 uM) [nM] | apparent KD of MS2 coat protein [1] [nM] | apparent KD of MS2 coat protein (input ligand: none) [nM] | apparent KD of MS2 coat protein [2] [nM] | apparent KD of MS2 coat protein [3] [nM] | apparent KD of MS2 coat protein [4] [nM]
18 | UUGUAACGAUUAGGAUAUUAUUAAUAGAACUUUAUGAUAUACAUGAGGAUCACCCAUGUUACUUUUAAGAAGGAAUCGUAUUAU [JR_ExcNG2_Sub091] (Eterna round: R96, puzzle: Exclusion NG 2) |  | 17 |  |  |  | 
19 | ACAUGAGGAUCACCCAUGUAAUCAUAAUGGCUGAUGUAGAGUCAGGAUAUGUGUGGCUUUCUAUCGCAGAAGGGACAAGACUGG [Deportation 34 - Jieux - Exclusion NG 3] (Eterna round: R96, puzzle: Exclusion NG 3) | 26.3 | 26.4 | 30.7 |  |  | 
20 | GAUCUACAUGAGGAUCACCCAUGUAAGGAUAUCUACAUUGAAGCCUCGGCUUCAAUGUAGAGAAGGUACAAUUA [E1/10-B2] (Eterna round: R97, puzzle: Exclusion 1) | 31.5 |  | 32.4 |  |  | 
21 | CGGUACUGAGGAUAUACAUGAGGAUCACCCAUGUGUUCUAGCUAGCGUACUGGCAUUAGUAGAAGGCGGUGCUG [JL-ex3-3.18 Brourd mod] (puzzle: Exclusion 3) |  |  |  | 28.9 | 15.4 | 17.2
22 | AAGAAACAUGAGGAUCACCCAUGUGAGGAUAUGACUAAGAAAAGAAAAGAAAGAAGAGUCAGAAGGCACAAAGG [salish99-ex1_r3_068] (puzzle: Exclusion 1) |  |  |  | 215 | 128 | 189
23 | CGUGUCUUUCACGUGAGUGGUGGGUGCAACAGGUGGGAAACAUGAGGAUCACCCAUGUCCUCAUUUGCUCGUCUUAU [Grok-var2-02] (puzzle: Sensor v3, turn-off variant 2) |  |  |  | 686 | 457 | 572
24 | AAGAAACGAGGAUAUACAAUUGAGUGAGAGAGGGAAGUGUGACAUGAGGAUCACCCAUGUAGAAGGCGUGAGAG [JR_Exclu2_Sub086] (puzzle: Exclusion 2) |  |  |  | 116 | 82.3 | 80.4
25 | AAAUACAAGCAAAGAUUCUACAUGAGGAUCACCCAUGUGCUCGUCUUAUAAAGUACUAUCACGAAAGUGAUAGUACA [Sensor 3, v1 - 33] (puzzle: Sensor v3, turn-off variant 1) |  |  |  | 21.3 | 161 | 23.2
26 | UAAAUGUGAGGAUAUUCGAUUUACUCGGAGACGAGUAGAUCGGAGAAGGCACAUGAGGAUCACCCAUGUUCCUU [Mat - Exclusion 4 - JL Mod - D10] (Eterna round: R97, puzzle: Exclusion 4) | 234 |  | 23.2 |  |  | 
27 | GGUUCGAAUGUGAGGAUAUGCUGGUCCUUGGAUCAGCAGAAGGCACAUGAGGAUCACCCAUGUGGUAACGGACC [Mat - Exclusion 4 - Eli Mod - D36] (Eterna round: R97, puzzle: Brourd's mod of Exclusion 4) | 178 |  | 357 |  |  | 
28 | UGUUGUUACGCAGGAUAUGAGGAUCACCCAUAUAAGGAUAUCGAAAGAGAAGUUCUGAGGAUCACCCAGAAGGGCGGGUUAACA [pwkr exNG2 2xF5 2xFMN.31] (Eterna round: R96, puzzle: Exclusion NG 2) | 193 | 59 | 71.1 |  |  | 
29 | UUUGUUUGCACAGGAUAUUGUUAUUUUAUUUUUCAAGAAGGGUGUACAUGAGGAUCACCCAUGUUAAGGUUUAAUCUUUCACUU [JR_ExcNG1_Sub010] (Eterna round: R96, puzzle: Exclusion NG 1) | 346 | 479 | 619 |  |  | 
30 | AAUUUACAUGAGGAUCACCCAUGUGAGGAUAUGGUUUCGCUGGCCGUAGCCAGUGGAACCAGAAGGCGCAUGAU [Mat - Exclusion 1 - JL Mod - D12] (Eterna round: R97, puzzle: Exclusion 1) | 283 |  | 65.2 |  |  | 
31 | AAUUUUUAUGUAAGGAUAUGGGUUUGGAAACGGGCUUAGAAGGUACAUGAGGAUCACCCAUGUAUAAUGUGCGU [-19.9, -19.7 kcal, 30% A] (Eterna round: R97, puzzle: Brourd's mod of Exclusion 4) | 19 |  | 18.3 |  |  | 
32 | AGAGUGCUGCGAGGAUAUACAUGAGGAUCACCCAUGUAAAAGUGUGAGGCUUUGCCUCACACGAAGUAGAAGGCGCAGUACUCA [Mat - Exclusion NG 2 - Mod of JL - D33] (Eterna round: R96, puzzle: Exclusion NG 2) | 13 | 11.3 | 24.3 |  |  | 
33 | UAGUAGCAAGGAUAUACAGAGGAGAGGAUUGCAAGAGGUGGACAUGAGGAUCACCCAUGUAGAAGGUGCAGAGA [JR_Exclu2_Sub021] (puzzle: Exclusion 2) |  |  |  | 310 | 275 | 362

— the supplement of paper PMC9170038
